Reference: PMC5772350

Experiments:
[1] = biological target: B5-GS3K (anti-CEA sdAb with C-terminal positively charged tail); assay: SPR
[2] = biological target: B5-Rhiz (anti-CEA sdAb fused C-terminally to rhizavidin); assay: SPR

## Carcinoembryonic antigen (CEA) (from UniProt P06731 35-685) (natural protein)
[1]
  Activity (%): 14.3%
[2]
  Activity (%): 5%
  XA (RU), SPR response to 100 nM CEA: 839 RU
